Source: patent US7419813B2, “Fructosyl peptide oxidase” (Kikkoman Corporation, priority 2001, dated 2008)

Format: physicochemical
Settings: pH 8
Protocol: For example, 200 mM potassium phosphate buffer (pH 8.0) is used for a treatment at 45° C. for 10 minutes to determine the remaining activities of the oxidases of the invention. The oxidases of the invention having high stability at a high temperature range are particularly preferable for industrial use. The oxidases of the invention may, for example, have a remaining activity of 50% or higher, preferably 70% or higher, and more preferably 80% or higher under the above-described conditions. For example, 200 mM potassium phosphate buffer (pH 8.0) is used for a treatment at 45° C. for 10 minutes. Then, the remaining activities of the enzymes of the invention are determined. The oxidases of the invention having high stability at a high temperature range are particularly preferable for industrial use. The oxidases of the invention that have less action on ε-fructosyl lysine may, for example, have a remaining activity of 50% or higher, preferably 70% or higher, more preferably 80% or higher under the above-described conditions. […] Next, the physiochemical properties of these oxidases were determined. […] Each crude enzyme sample was heat-treated at 45° C. for 10 minutes, and then its activity for fructosyl valyl histidine was determined and compared to the activity before treatment. […]

B1: Eupenicillium terrenum ATCC 18547: fructosyl peptide oxidase produced by Eupenicillium terrenum ATCC 18547 with less action on ε-fructosyl lysine; amino acid sequence SEQ ID NO: 3 (protein, listed as Eupenicillium terrenum)
chain: MAHSRASTKVVVVGGGGTIGSSTALHLIRSGYTPSNITVLDVYKTPSLQSAGHDLNKIMGIRLRNGPDLQLSLESLDMWQNDELFKPFFHQVGMIDCSSSKEGIENLRRKYQTLLDAGIGLEKTNVWLESEDEILAKAPNFTREQVKGWKGLFCTDGGWLAAAKAINAIGIFLQDKGVKFGFGGAGTFQQPLFAADGKTCIGLETTDGTKYFADKVVLAAGAWSPTLVDLEDQCVSKAWVFAHIQLTPKEADAYKNVPVVYDGEYGFFFEPNEYGVIKVCDEFPGFSRFKLHQPYGAASPKMISVPRSHAKHPTDTYPDASEVTIRKAIARFLPEFKDKELFNRTMCWCTDTADANLLICEHPKWKNFILATGDSGHSFKLLPNIGKHVVELLEGSLSQEMAGAWRWRPGGDALRSRRGAPAKDLAEMPGWKHDAHL
For B1, the “remaining activity following heat treatment at 45° C. for 10 minutes” value was “approximately 100%”.
